Laboratory results: patent publication US20220081480A1 (Merck KGaA, published 2022)

Tests used:
[1] = molecular target: T1, human TIM-3 ECD with 6-His tag (hu TIM-3-His6) (human, UniProt Q8TDQ0 22-200); assay: SPR (Biacore), relative to 3903E11 (VH1.0, VL1.0)
T1 construct: Novoprotein Cat# C356; the entry includes the His tag; also called hTIM3-His; human TIM3-His6

[2] = molecular target: T2, human TIM-3 on huTIM-3-CHO-S cells (human, UniProt Q8TDQ0 22-202); assay: FACS on CHO-S-hTIM-3 cells
T2 construct: Membrane-anchored human TIM-3 ECD (NP_116171) stably expressed on CHO-S cells; also called CHO-S-hTIM3; CHO-S-hTIM-3; not shown: membrane anchor of the expression vector, not described

[3] = molecular target: T1, human TIM-3 ECD with 6-His tag (hu …); assay: SPR (Biacore)
cyno TIM-3-His6 = molecular target: T3, cyno TIM-3-His6 (cynomolgus monkey); assay: SPR (Biacore)
T3 construct: Made in HEK293 cells; not shown: 6-His tag
T3 chain: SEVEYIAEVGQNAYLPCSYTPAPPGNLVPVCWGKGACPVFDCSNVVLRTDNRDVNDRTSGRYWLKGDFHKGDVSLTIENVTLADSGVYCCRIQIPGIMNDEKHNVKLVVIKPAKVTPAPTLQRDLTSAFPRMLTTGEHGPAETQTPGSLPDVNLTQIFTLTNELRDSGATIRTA

[4] = molecular target: T4, wild-type TIM-3 (hu TIM-3), HEK-expressed (human, UniProt Q8TDQ0 22-202, limits assumed); assay: SPR
T4 construct: Soluble protein of the mutagenesis study

Binder | Human TIM3 KD Ratio to Parent [1] | MFI at 0.1 µg/ml [2] [MFI] | MFI at 1 µg/ml [2] [MFI] | MFI at 10 µg/ml [2] [MFI] | Kd [3] [nM] | Kd (cyno TIM-3-His6) [nM] | Kd [4] [nM]
3903E11 (VH1.0, VL1.1) (antibody, human IgG1, lambda, Pair-wise combination of parental heavy chain and VL1.1-CL; IgG1 lambda) heavy: not shown light: QSALTQPRSVSGSPGQSVTISCTGTSSDVGGYNYVSWYQQHPGKAPKLMIFDVSKRPSGVPDRFSGSKSGNTASLTISGLQAEDEADYYCSSYADSVVFGGGTKVTVLGQPKAAPSVTLFPPSSEELQANKATLVCLISDFYPGAVTVAWKADSSPVKAGVETTTPSKQSNNKYAASSYLSLTPEQWKSHKSYSCQVTHEGSTVEKTVAPTECS | 0.78 | 148 | 1460 | 1870 | 2.7 | 6.5 | 
3903E11 (VH1.2, VL1.1) (antibody, human IgG1, lambda, IgG1 lambda) heavy: not shown light: QSALTQPRSVSGSPGQSVTISCTGTSSDVGGYNYVSWYQQHPGKAPKLMIFDVSKRPSGVPDRFSGSKSGNTASLTISGLQAEDEADYYCSSYADSVVFGGGTKVTVLGQPKAAPSVTLFPPSSEELQANKATLVCLISDFYPGAVTVAWKADSSPVKAGVETTTPSKQSNNKYAASSYLSLTPEQWKSHKSYSCQVTHEGSTVEKTVAPTECS | 0.52 | 148 | 1400 | 1930 | 1.8 | 5.6 | 
3903E11 (VH1.3, VL1.1) (antibody, human IgG1, lambda, IgG1 lambda) heavy: not shown light: QSALTQPRSVSGSPGQSVTISCTGTSSDVGGYNYVSWYQQHPGKAPKLMIFDVSKRPSGVPDRFSGSKSGNTASLTISGLQAEDEADYYCSSYADSVVFGGGTKVTVLGQPKAAPSVTLFPPSSEELQANKATLVCLISDFYPGAVTVAWKADSSPVKAGVETTTPSKQSNNKYAASSYLSLTPEQWKSHKSYSCQVTHEGSTVEKTVAPTECS |  | 105 | 1050 |  | 4.7 | 19.5 | 
3903E11 (VH1.0, VL1.3) (antibody, IgG1, IgG1 lambda) heavy: not shown light: QSALTQPRSVSGSPGQSVTISCTGTSSDVGGYNYVSWYQQHPGKAPKLMIYDVSKRPSGVPDRFSGSKSGNTASLTISGLQAEDEADYYCSSYADSVVFGGGTKVTVLGQPKAAPSVTLFPPSSEELQANKATLVCLISDFYPGAVTVAWKADSSPVKAGVETTTPSKQSNNKYAASSYLSLTPEQWKSHKSYSCQVTHEGSTVEKTVAPTECS |  | 162 | 1540 | 1930 | 2.7 | 6.7 | 
3903E11 (VH1.3, VL1.0) (antibody, human IgG1, lambda, IgG1 lambda) heavy: not shown light: SYELTQPRSVSGSPGQSVTISCTGTSSDVGGYNYVSWYQQHPGKAPKLMIFDVSKRPSGVPDRFSGSKSGNTASLTISGLQAEDEADYYCSSYADSVVFGGGTKVTVLGQPKAAPSVTLFPPSSEELQANKATLVCLISDFYPGAVTVAWKADSSPVKAGVETTTPSKQSNNKYAASSYLSLTPEQWKSHKSYSCQVTHEGSTVEKTVAPTECS |  | 105 | 957 |  | 6.4 | 19.3 | 
3903E11 (VH1.0, VL1.2) (antibody, human IgG1, lambda, IgG1 lambda) heavy: not shown light: SYELTQPRSVSGSPGQSVTISCTGTSSDVGGYNYVSWYQQHPGKAPKLMIYDVSKRPSGVPDRFSGSKSGNTASLTISGLQAEDEADYYCSSYADSVVFGGGTKVTVLGQPKAAPSVTLFPPSSEELQANKATLVCLISDFYPGAVTVAWKADSSPVKAGVETTTPSKQSNNKYAASSYLSLTPEQWKSHKSYSCQVTHEGSTVEKTVAPTECS |  | 140 | 1340 | 1930 | 3.4 | 8.6 | 
3903E11 (VH1.2, VL1.0) (antibody, human IgG1, lambda, IgG1 lambda) heavy: not shown light: SYELTQPRSVSGSPGQSVTISCTGTSSDVGGYNYVSWYQQHPGKAPKLMIFDVSKRPSGVPDRFSGSKSGNTASLTISGLQAEDEADYYCSSYADSVVFGGGTKVTVLGQPKAAPSVTLFPPSSEELQANKATLVCLISDFYPGAVTVAWKADSSPVKAGVETTTPSKQSNNKYAASSYLSLTPEQWKSHKSYSCQVTHEGSTVEKTVAPTECS | 0.62 | 156 | 1510 | 1950 | 2.2 | 5.5 | 
3903E11 (VH1.3, VL1.2) (antibody, human IgG1, lambda, IgG1 lambda) heavy: not shown light: SYELTQPRSVSGSPGQSVTISCTGTSSDVGGYNYVSWYQQHPGKAPKLMIYDVSKRPSGVPDRFSGSKSGNTASLTISGLQAEDEADYYCSSYADSVVFGGGTKVTVLGQPKAAPSVTLFPPSSEELQANKATLVCLISDFYPGAVTVAWKADSSPVKAGVETTTPSKQSNNKYAASSYLSLTPEQWKSHKSYSCQVTHEGSTVEKTVAPTECS |  | 87 | 958 |  | 6 | 19.9 | 
3903E11 (VH1.1, VL1.3) (antibody, IgG1, IgG1 lambda) heavy: not shown light: QSALTQPRSVSGSPGQSVTISCTGTSSDVGGYNYVSWYQQHPGKAPKLMIYDVSKRPSGVPDRFSGSKSGNTASLTISGLQAEDEADYYCSSYADSVVFGGGTKVTVLGQPKAAPSVTLFPPSSEELQANKATLVCLISDFYPGAVTVAWKADSSPVKAGVETTTPSKQSNNKYAASSYLSLTPEQWKSHKSYSCQVTHEGSTVEKTVAPTECS |  |  |  |  | 7.4 | 22.3 | 
3903E11 (VH1.3, VL1.3) (antibody, IgG1, IgG1 lambda) heavy: not shown light: QSALTQPRSVSGSPGQSVTISCTGTSSDVGGYNYVSWYQQHPGKAPKLMIYDVSKRPSGVPDRFSGSKSGNTASLTISGLQAEDEADYYCSSYADSVVFGGGTKVTVLGQPKAAPSVTLFPPSSEELQANKATLVCLISDFYPGAVTVAWKADSSPVKAGVETTTPSKQSNNKYAASSYLSLTPEQWKSHKSYSCQVTHEGSTVEKTVAPTECS |  | 82 | 1020 |  | 4.5 |  | 
3903E11 (VH1.2, VL1.2) (antibody, human IgG1, lambda, IgG1 lambda) heavy: not shown light: SYELTQPRSVSGSPGQSVTISCTGTSSDVGGYNYVSWYQQHPGKAPKLMIYDVSKRPSGVPDRFSGSKSGNTASLTISGLQAEDEADYYCSSYADSVVFGGGTKVTVLGQPKAAPSVTLFPPSSEELQANKATLVCLISDFYPGAVTVAWKADSSPVKAGVETTTPSKQSNNKYAASSYLSLTPEQWKSHKSYSCQVTHEGSTVEKTVAPTECS |  | 114 | 1300 | 1900 | 1.6 | 6.3 | 
3903E11 (VH1.1, VL1.1) (antibody, human IgG1, lambda, IgG1 lambda) heavy: not shown light: QSALTQPRSVSGSPGQSVTISCTGTSSDVGGYNYVSWYQQHPGKAPKLMIFDVSKRPSGVPDRFSGSKSGNTASLTISGLQAEDEADYYCSSYADSVVFGGGTKVTVLGQPKAAPSVTLFPPSSEELQANKATLVCLISDFYPGAVTVAWKADSSPVKAGVETTTPSKQSNNKYAASSYLSLTPEQWKSHKSYSCQVTHEGSTVEKTVAPTECS |  | 154 | 1390 |  | 7.6 | 17.9 | 
27.12E12 (antibody, V domains shown) VH: EVQLQQSGAELVRPGALVKLSCKASGFNIKDYYMYWMKQRPEQGLEWIGWIDPENVKTIYDPKFQGRATLTADTSSNTAYLQLSSLTSEDTAVYYCTRDFGYVGFFDVWGAGTTVTVSS VL: DIVMTQSQKFMSTSVGDRVSVNCKASQNVGTNVVWYQQKPGQSPKALIYSASYRYSGVPDRFTGSGSGTDFTLTISTVQSEDLAEYFCQQYNSYPLTFGGGTKLEIKR |  |  |  |  |  |  | 51.6
